Here are results for 1 substance from patent US20120039878A1.

The experiment deals with murine monoclonal antibody 2A4 (ATCC Accession Number PTA-9662). The experiment is described as follows: Competition ELISA; mouse AA (AEF) in solution competing with adsorbed human AA amyloid extract for mAb 2A4. For orientation: An ELISA detects its analyte on a solid surface through an enzyme-linked reagent.

One may read the IC50 as the concentration needed to halve the response being measured.

Chain of murine AA amyloid (AA fibrils; amyloid enhancing factor extract, AEF) (P05367 20-94): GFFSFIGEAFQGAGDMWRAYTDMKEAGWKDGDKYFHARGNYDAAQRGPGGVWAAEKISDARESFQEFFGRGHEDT
Chain of murine monoclonal antibody 2A4 (ATCC Accession Number PTA-9662) (VL, as listed by the source, chain 1 of 2): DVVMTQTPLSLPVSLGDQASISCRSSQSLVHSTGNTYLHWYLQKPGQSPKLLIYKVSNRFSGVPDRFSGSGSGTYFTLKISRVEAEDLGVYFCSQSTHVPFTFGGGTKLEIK
Chain of murine monoclonal antibody 2A4 (ATCC Accession Number PTA-9662) (VH, as listed by the source, chain 2 of 2): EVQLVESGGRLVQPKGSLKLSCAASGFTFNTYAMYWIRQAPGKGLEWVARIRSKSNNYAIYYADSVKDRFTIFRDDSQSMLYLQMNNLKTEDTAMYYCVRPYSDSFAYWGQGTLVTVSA

On to “murine AA amyloid (AA fibrils; amyloid enhancing factor extract, AEF)”, for which the 50% inhibitory concentration (IC50) was determined as 14.7 µg/mL.
